Experimental data: article PMC5480393 (Cell, 2017)
Where two headings read alike, the source gives them in different places.

B1: VR3 (red abalone VERL repeat 3 without the interdomain linker) (domain or fragment)
chain: DWDVYCSQDESIPAKFISRLVTSKDQALEKTEINCSNGLVPITQEFGINMMLIQYTRNELLDSPGMCVFWGPYSVPKNDTVVLYTVTARLKWSEGPPTNLSIQCYMPKSPVAPK
B2: mMBP-VR3 (mammalianized maltose-binding protein fusion of VERL repeat 3) (domain or fragment)
chain: B1 chain

Experiments:
crystal structure [1] = molecular target: the molecule itself; test: crystal structure
crystal structure [2] = molecular target: the molecule itself; test: crystal structure; remark: listed apart in the source

Row | Protein | binding result (crystal structure [1]) | binding result (crystal structure [2])
1 | B1 | binds | –
2 | B2 | – | binds
